Reference: patent US20220031822A1 (Janssen / Centocor, published 2022)

T1: human BCMA (B cell maturation antigen) (human, UniProt Q02223 1-184)
T1 construct: whole, on cells; also called hBCMA; TNFRSF17
T1 sequence (looked up): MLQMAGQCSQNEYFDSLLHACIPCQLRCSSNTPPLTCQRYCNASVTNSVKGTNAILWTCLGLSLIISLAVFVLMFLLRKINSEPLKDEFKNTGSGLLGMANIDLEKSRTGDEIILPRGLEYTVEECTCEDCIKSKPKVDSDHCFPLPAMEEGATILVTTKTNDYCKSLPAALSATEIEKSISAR


Molecular target: T1, human BCMA (B cell maturation antigen)
Assay: flow cytometry, FN3 domain titration on HEK293F cells transiently expressing human BCMA, anti-His Alexa-488 detection, PRISM one-site specific binding fit
Parameters: Bmax: unit not given here
Method: 50 uL secondary antibody in FACS buffer was added to the wells. Anti-His mAb was added at a 1/100 dilution to all of the wells except for the FACS buffer only negative control wells. The plates were incubated on ice for 1 hr. Afterwards, cells were collected and combined from two wells from all four plates to check cell count and viability using Trypan blue on the Vi-Cell system. The cell count was about 67,500/well at 96.6% viability. The cell count of the control cells that were kept on ice for comparison was 1×10⁶/mL at 95.1% viability.
After 1 hr of staining, the plates were spun at 1200 rpm for 5 min at 4° C. to pellet the cells. Buffer was discarded by inverting the plates, and 100 uL FACS buffer were added to the wells. The FACS buffer wash was repeated two more times. The plates were spun at 1200 rpm for 5 min at 4° C. to pellet the cells, and buffer was discarded by inverting the plates.
Cells were resuspended in 30 uL Intellicyt buffer (FACS buffer, 0.1% Pluronic Acid, 1 mM EDTA, SytoX Red Live/Dead Stain at a 1:1000 dilution) and mixed gently by vortexing the plates. The plates were kept on ice and read on an Intellicyt plate reader. Cells were gated in the following order: (a) cells, (b) single cells, (c) viable cells. The Geometric Mean of Alexa 488 channel was calculated, and the percentage of viable single cells was calculated.

| Bmax | Kd | Binder |
| --- | --- | --- |
| 60700 | 1.6 nM | G11 BCMA-specific FN3 domain (designed binder, Detected with an anti-His mAb, so the protein tested carried a His tag) MLPAPKNLVVSRITEDSARLSWTAPDAAFDSFWIRYVERLVWGEAIHLHVPGSERSYDLTGLKPGTEYVVVISGVKGGWESTPLVAPFTT |
| 56700 | 6.5 nM | E02 BCMA-specific FN3 domain (designed binder, Detected with an anti-His mAb, so the protein tested carried a His tag) MLPAPKNLVVSRVTEDSARLSWTAPDAAFDSFVIVYSEPDVCGEAIVLTVPGSERSYDLTGLKPGTEYWVRIAGVKGGDFSRPLSAIFTT |
| 51400 | 22 nM | A12 BCMA-specific FN3 domain (designed binder, Detected with an anti-His mAb, so the protein tested carried a His tag) MLPAPKNLVVSRITEDSARLSWTAPDAAFDSFTIKYIERATWGEAIWLNVPGSERSYDLTGLKPGTEYVVLINGVKGGPESWPLIAHFTT |
| 60900 | 8.7 nM | B03 BCMA-specific FN3 domain (designed binder, Detected with an anti-His mAb, so the protein tested carried a His tag) MLPAPKNLVVSRITEDSARLSWTAPDAAFDSFPIRYIETLIWGEAIWLDVPGSERSYDLTGLKPGTEYTVVIDGVKGGGRSQPLVATFTT |
| 58200 | 4.2 nM | F11 BCMA-specific FN3 domain (designed binder, Detected with an anti-His mAb, so the protein tested carried a His tag) MLPAPKNLVVSRVTEDSARLSWTAPDAAFDSFPIRYIETLIWGEAIWLDVPGSERSYDLTGLKPGTEYVVVIDGVKGGDHSKPLVATFTT |
| 57800 | 4.9 nM | D10 BCMA-specific FN3 domain (designed binder, Detected with an anti-His mAb, so the protein tested carried a His tag) MLPAPKNLVVSRITEDSARLSWTAPDAAFDSFPIRYIETLIWGEAIWLYVPGSERSYDLTGLKPGTEYTVVIDGVKGGGRSQPLVASFTT |
| 101000 | 3000 nM | A08 BCMA-specific FN3 domain (designed binder, Detected with an anti-His mAb, so the protein tested carried a His tag) MLPAPKNLVVSRITEDSARLSWTAPDAAFDSFPIRYIETLIWGEAIWLDVPGSERSYDLTGLKPGTEYAVVITGVKGGRFSSPLVASFTT |
| 57900 | 23 nM | C08 BCMA-specific FN3 domain (designed binder, Detected with an anti-His mAb, so the protein tested carried a His tag) MLPAPKNLVVSRITEDSARLSWTAPDAAFDSFPIRYIETLIWGEAIWLYVPGSERSYDLTGLKPGTEYTVVISGVKGGESSYPLIAAFTT |
| 73600 | 130 nM | E09 BCMA-specific FN3 domain (designed binder, Detected with an anti-His mAb, so the protein tested carried a His tag) MLPAPKNLVVSRVTEDSARLSWTAPDAAFDSFRIRYVEVIAWGEAIWLVVPGSERSYDLTGLKPGTEYVVVIDGVKGGKTSIPLIAHFTT |
| 51600 | 520 nM | F01 BCMA-specific FN3 domain (designed binder, Detected with an anti-His mAb, so the protein tested carried a His tag) MLPAPKNLVVSRVTEDSARLSWTAPDAAFDSFIIVYRENIETGEAIVLTVPGSERSYDLTGLKPGTEYYVQIAGVKGGNISFPLSAIFTT |
| 72600 | 76 nM | G10 BCMA-specific FN3 domain (designed binder, Detected with an anti-His mAb, so the protein tested carried a His tag) MLPAPKNLVVSRVTEDSARLSWIAPDAAFDSFIIVYRENIETGEAIVLTVPGSERSYDLTGLKPGTEYYVQIAGVKGGNISFPLSAIFTT |
| 61200 | 230 nM | D08 BCMA-specific FN3 domain (designed binder, Detected with an anti-His mAb, so the protein tested carried a His tag) MLPAPKNLVVSHVTEDSARLSWTAPDAAFDSFIIVYRENIETGEAIVLTVPGSERSYDLTDLKPGTEYYVQIAGVKGGNISFPLSAIFTT |
